# Assay results: patent publication US20210246166A1 (Bayer, published 2021)
# Numbered stars: 1 amine (or outer) side, 2 acyl side, 3 side chain; on linkers, the order of the positions; unused ones are H or OH. Bridge positions count the residues as written; N and C are the ends. Square brackets hold non-standard residues; d marks the D form. Ends that are not written are not given here. X17 = 2‑((1S,2S)-1-(Amino)-2-methylbutyl)‑1,3‑oxazole‑4‑carboxylic acid, CC[C@H](C)[C@H](N[*:1])c1nc(C(=O)[*:2])co1; Pro(4-spirocPr) = O=C(O)[C@@H]1CC2(CC2)CN1; Oic = O=C(O)[C@@H]1C[C@@H]2CCCC[C@@H]2N1; tBuAla = CC(C)(C)C[C@H](N)C(=O)O; Pen = CC(C)(S)[C@H](N)C(=O)O; NMeC = CN[C@@H](CS)C(=O)O; Orn = NCCC[C@H](N)C(=O)O
# Biological target: T1, recombinant rat MASP1 active protease (amino acids 302-704, C-terminal His Tag) (rat, UniProt Q8CHN8 302-704)
# T1 sequence: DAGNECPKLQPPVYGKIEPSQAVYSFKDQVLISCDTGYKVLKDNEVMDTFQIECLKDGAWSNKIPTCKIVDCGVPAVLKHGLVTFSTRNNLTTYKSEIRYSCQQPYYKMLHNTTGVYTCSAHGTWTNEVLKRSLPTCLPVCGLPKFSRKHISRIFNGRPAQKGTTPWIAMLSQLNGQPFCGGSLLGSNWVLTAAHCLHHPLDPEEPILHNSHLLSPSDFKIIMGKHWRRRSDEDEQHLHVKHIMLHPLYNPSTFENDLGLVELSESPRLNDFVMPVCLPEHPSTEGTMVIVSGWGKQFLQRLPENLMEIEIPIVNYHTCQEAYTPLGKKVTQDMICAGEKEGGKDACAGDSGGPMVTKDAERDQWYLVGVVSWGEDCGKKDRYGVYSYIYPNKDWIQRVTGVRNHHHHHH
# Assay: cell-based or functional assay
row,Binder,rat MASP1 IC50 [nM]
1,KICSRS[tBuAla]PPI[NMeC]IPD-NH2 (disulfide 3-11; N-terminus assumed; SMILES CC[C@H](C)[C@H](NC(=O)[C@@H](N)CCCCN)C(=O)N[C@H]1CSSC[C@@H](C(=O)N[C@H](C(=O)N2CCC[C@H]2C(=O)N[C@@H](CC(=O)O)C(N)=O)[C@@H](C)CC)N(C)C(=O)[C@H]([C@@H](C)CC)NC(=O)[C@@H]2CCCN2C(=O)[C@@H]2CCCN2C(=O)[C@H](CC(C)(C)C)NC(=O)[C@H](CO)NC(=O)[C@H](CCCNC(=N)N)NC(=O)[C@H](CO)NC1=O) [Example 35: KIC+SRS-((tBu)A)-PPI-((N-Me)C)+IPD-NH2],46
2,AICSRS[tBuAla]PPI[NMeC]IPD-NH2 (disulfide 3-11; also: HCl salt) [Example 30: AIC+SRS-((tBu)A)-PPI-((N-Me)C)+IPD-NH2 (HCl salt)],28
3,AICSRS[tBuAla]PPI[NMeC][X17]D-NH2 (disulfide 3-11; N-terminus assumed; SMILES CC[C@H](C)[C@H](NC(=O)[C@H](C)N)C(=O)N[C@H]1CSSC[C@@H](C(=O)N[C@H](c2nc(C(=O)N[C@@H](CC(=O)O)C(N)=O)co2)[C@@H](C)CC)N(C)C(=O)[C@H]([C@@H](C)CC)NC(=O)[C@@H]2CCCN2C(=O)[C@@H]2CCCN2C(=O)[C@H](CC(C)(C)C)NC(=O)[C@H](CO)NC(=O)[C@H](CCCNC(=N)N)NC(=O)[C@H](CO)NC1=O),13
4,[Orn]ICSRS[tBuAla]PPI[Pen]IPD-OH (disulfide 3-11; N-terminus assumed; SMILES CC[C@H](C)[C@H](NC(=O)[C@@H](N)CCCN)C(=O)N[C@H]1CSSC(C)(C)[C@@H](C(=O)N[C@H](C(=O)N2CCC[C@H]2C(=O)N[C@@H](CC(=O)O)C(=O)O)[C@@H](C)CC)NC(=O)[C@H]([C@@H](C)CC)NC(=O)[C@@H]2CCCN2C(=O)[C@@H]2CCCN2C(=O)[C@H](CC(C)(C)C)NC(=O)[C@H](CO)NC(=O)[C@H](CCCNC(=N)N)NC(=O)[C@H](CO)NC1=O) [Example 18: (Orn)-IC+SRS-((tBu)A)-PPI-(Pen)+IPD-OH],26
5,AICSRS[tBuAla]P[Pro(4-spirocPr)]I[Pen]IPD-OH (disulfide 3-11; N-terminus assumed; SMILES CC[C@H](C)[C@H](NC(=O)[C@H](C)N)C(=O)N[C@H]1CSSC(C)(C)[C@@H](C(=O)N[C@H](C(=O)N2CCC[C@H]2C(=O)N[C@@H](CC(=O)O)C(=O)O)[C@@H](C)CC)NC(=O)[C@H]([C@@H](C)CC)NC(=O)[C@@H]2CC3(CC3)CN2C(=O)[C@@H]2CCCN2C(=O)[C@H](CC(C)(C)C)NC(=O)[C@H](CO)NC(=O)[C@H](CCCNC(=N)N)NC(=O)[C@H](CO)NC1=O) [Example 31: AIC+SRS-((tBu)A)-P-((6S)-5-Azaspiro[2.4]heptane-6-carboxylic acid)-I-(Pen)+IPD-OH],22
6,AICSRSLP[Pro(4-spirocPr)]I[Pen]IPD-NH2 (disulfide 3-11; N-terminus assumed; SMILES CC[C@H](C)[C@H](NC(=O)[C@H](C)N)C(=O)N[C@H]1CSSC(C)(C)[C@@H](C(=O)N[C@H](C(=O)N2CCC[C@H]2C(=O)N[C@@H](CC(=O)O)C(N)=O)[C@@H](C)CC)NC(=O)[C@H]([C@@H](C)CC)NC(=O)[C@@H]2CC3(CC3)CN2C(=O)[C@@H]2CCCN2C(=O)[C@H](CC(C)C)NC(=O)[C@H](CO)NC(=O)[C@H](CCCNC(=N)N)NC(=O)[C@H](CO)NC1=O) [Example 17: AIC+SRSLP-((6S)-5-Azaspiro[2.4]heptane-6-carboxylic acid)-I-(Pen)+IPD-NH2],31
7,RICSRS[tBuAla]PPI[NMeC]I-NH2 (disulfide 3-11; N-terminus assumed; SMILES CC[C@H](C)[C@H](NC(=O)[C@@H]1CSSC[C@H](NC(=O)[C@@H](NC(=O)[C@@H](N)CCCNC(=N)N)[C@@H](C)CC)C(=O)N[C@@H](CO)C(=O)N[C@@H](CCCNC(=N)N)C(=O)N[C@@H](CO)C(=O)N[C@@H](CC(C)(C)C)C(=O)N2CCC[C@H]2C(=O)N2CCC[C@H]2C(=O)N[C@@H]([C@@H](C)CC)C(=O)N1C)C(N)=O) [Example 38: RIC+SRS-((tBu)A)-PPI-((N-Me)C)+I-NH2],12
8,RICSRS[tBuAla]PPI[NMeC]IPD-NH2 (disulfide 3-11; N-terminus assumed; SMILES CC[C@H](C)[C@H](NC(=O)[C@@H](N)CCCNC(=N)N)C(=O)N[C@H]1CSSC[C@@H](C(=O)N[C@H](C(=O)N2CCC[C@H]2C(=O)N[C@@H](CC(=O)O)C(N)=O)[C@@H](C)CC)N(C)C(=O)[C@H]([C@@H](C)CC)NC(=O)[C@@H]2CCCN2C(=O)[C@@H]2CCCN2C(=O)[C@H](CC(C)(C)C)NC(=O)[C@H](CO)NC(=O)[C@H](CCCNC(=N)N)NC(=O)[C@H](CO)NC1=O) [Example 19: RIC+SRS-((tBu)A)-PPI-((N-Me)C)+IPD-NH2],23
9,AICSRS[tBuAla]P[Oic]I[Pen]IPD-OH (disulfide 3-11; N-terminus assumed; SMILES CC[C@H](C)[C@H](NC(=O)[C@H](C)N)C(=O)N[C@H]1CSSC(C)(C)[C@@H](C(=O)N[C@H](C(=O)N2CCC[C@H]2C(=O)N[C@@H](CC(=O)O)C(=O)O)[C@@H](C)CC)NC(=O)[C@H]([C@@H](C)CC)NC(=O)[C@@H]2C[C@@H]3CCCC[C@@H]3N2C(=O)[C@@H]2CCCN2C(=O)[C@H](CC(C)(C)C)NC(=O)[C@H](CO)NC(=O)[C@H](CCCNC(=N)N)NC(=O)[C@H](CO)NC1=O) [Example 14: AIC+SRS-((tBu)A)-P-(Oic)-I-(Pen)+IPD-OH],23
10,AICSRSLP[Pro(4-spirocPr)]I[Pen]IPD-OH (disulfide 3-11; N-terminus assumed; SMILES CC[C@H](C)[C@H](NC(=O)[C@H](C)N)C(=O)N[C@H]1CSSC(C)(C)[C@@H](C(=O)N[C@H](C(=O)N2CCC[C@H]2C(=O)N[C@@H](CC(=O)O)C(=O)O)[C@@H](C)CC)NC(=O)[C@H]([C@@H](C)CC)NC(=O)[C@@H]2CC3(CC3)CN2C(=O)[C@@H]2CCCN2C(=O)[C@H](CC(C)C)NC(=O)[C@H](CO)NC(=O)[C@H](CCCNC(=N)N)NC(=O)[C@H](CO)NC1=O) [Example 36: AIC+SRSLP-((6S)-5-Azaspiro[2.4]heptane-6-carboxylic acid)-I-(Pen)+IPD-OH],24
11,AICSRS[tBuAla]PPICI-NH2 (disulfide 3-11; N-terminus assumed; SMILES CC[C@H](C)[C@H](NC(=O)[C@@H]1CSSC[C@H](NC(=O)[C@@H](NC(=O)[C@H](C)N)[C@@H](C)CC)C(=O)N[C@@H](CO)C(=O)N[C@@H](CCCNC(=N)N)C(=O)N[C@@H](CO)C(=O)N[C@@H](CC(C)(C)C)C(=O)N2CCC[C@H]2C(=O)N2CCC[C@H]2C(=O)N[C@@H]([C@@H](C)CC)C(=O)N1)C(N)=O) [Example 37: AIC+SRS-((tBu)A)-PPIC+I-NH2],140
12,AICSRS[tBuAla]PPI[Pen]IPD-OH (disulfide 3-11; N-terminus assumed; SMILES CC[C@H](C)[C@H](NC(=O)[C@H](C)N)C(=O)N[C@H]1CSSC(C)(C)[C@@H](C(=O)N[C@H](C(=O)N2CCC[C@H]2C(=O)N[C@@H](CC(=O)O)C(=O)O)[C@@H](C)CC)NC(=O)[C@H]([C@@H](C)CC)NC(=O)[C@@H]2CCCN2C(=O)[C@@H]2CCCN2C(=O)[C@H](CC(C)(C)C)NC(=O)[C@H](CO)NC(=O)[C@H](CCCNC(=N)N)NC(=O)[C@H](CO)NC1=O) [Example 12: AIC+SRS-((tBu)A)-PPI-(Pen)+IPD-OH],13
